We go through 1 substance from paper PMC6457909 (Science (New York, N.Y.), 2019).

The test concerns the target H5N1 A/Vietnam/1203/2004 hemagglutinin, trypsin-cleaved (HA1/HA2), as crystallised with JNJ4796 (influenza A virus H5N1 A/Vietnam/1203/2004) (UniProt Q5EP31). Put plainly: crystal structure.

In general, stoichiometry N refers to the number of molecules, sites or subunits per partner or assembly. The substance “H5N1 A/Vietnam/1203/2004 hemagglutinin, trypsin-cleaved (HA1/HA2), as crystallised with JNJ4796 (from UniProt Q5EP31 1-568; Q5EP31 1-568) (natural protein)” showed a stoichiometry N of 3.
